Data published in article PMC8899190 (2022).

Experiments:
Assay in all cases: BLI
[1] = target: T1, Avi-tagged, biotinylated h14-3-3ß_(nY130) (human, UniProt P31946 1-246, 3-nitrotyrosine at 130; biotin on the N-terminal Avi tag)
T1 chain: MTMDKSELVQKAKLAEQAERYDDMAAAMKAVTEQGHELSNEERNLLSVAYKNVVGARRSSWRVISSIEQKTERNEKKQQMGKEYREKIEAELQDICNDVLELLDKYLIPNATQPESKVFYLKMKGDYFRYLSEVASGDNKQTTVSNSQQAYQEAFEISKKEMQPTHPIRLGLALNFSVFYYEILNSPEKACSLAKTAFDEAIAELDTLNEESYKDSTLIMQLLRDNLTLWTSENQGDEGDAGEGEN

[2] = target: T2, Avi-tagged, biotinylated h14-3-3ß_(nY213) (human, UniProt P31946 1-246, 3-nitrotyrosine at 213; biotin on the N-terminal Avi tag)
T2 chain: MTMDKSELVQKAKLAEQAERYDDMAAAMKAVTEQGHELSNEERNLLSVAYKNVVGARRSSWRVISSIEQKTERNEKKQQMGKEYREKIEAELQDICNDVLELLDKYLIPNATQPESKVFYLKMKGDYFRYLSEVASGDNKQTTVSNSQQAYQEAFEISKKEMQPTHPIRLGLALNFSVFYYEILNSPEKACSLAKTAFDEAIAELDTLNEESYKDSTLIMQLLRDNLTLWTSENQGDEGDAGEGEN

[3] = target: T3, Avi-tagged, biotinylated h14-3-3ß WT (human, UniProt P31946 1-239, biotin on the N-terminal Avi tag)
T3 chain: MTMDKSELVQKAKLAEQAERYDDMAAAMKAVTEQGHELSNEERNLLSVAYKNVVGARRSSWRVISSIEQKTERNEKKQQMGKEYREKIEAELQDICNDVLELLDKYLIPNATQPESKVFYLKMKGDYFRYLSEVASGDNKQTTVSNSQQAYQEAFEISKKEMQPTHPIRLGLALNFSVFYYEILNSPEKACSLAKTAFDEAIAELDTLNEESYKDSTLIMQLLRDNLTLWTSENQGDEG

Kd [1]: 100 nM
Kd [2]: 104 nM
Kd [3]: 91 nM
B1: Nb-G5 (C115S) (VHH)
VHH: QVQLQESGGGLVQPGGSLRLSCAASKNIANFDSMAWYRRSPGKERDLVARLYSDGGTNYEDSVKGRFNISTDIEKNTVYLQMNNLKLEDTARYYCRADLGLFDTSEFPGQGTQVTVSS
